These results are taken from paper PMC3109874.

This experiment deals with dicamba monooxygenase (DMO) (Stenotrophomonas (formerly Pseudomonas) maltophilia, strain DI-6) (UniProt Q5S3I3). Description: crystal structure.

For the substance “dicamba monooxygenase (DMO) (from UniProt Q5S3I3 2-339) (enzyme)”, the stoichiometry N (in general, a count of units in the complex or per binding partner) came out at 3.
